In the DeepSol protein solubility set:

Test: soluble on expression in E. coli; label from the status in PepcDB or PDB records

Sequence | soluble on expression in E. coli
MAHHHHHHMAAVDMQVRAGELPEEPKKDLKKEPSGASKSEEEMQSGIKTYYEMKIEEYESIINKKLQNKKRLEAQRNELNTRVRELCDEIQYLLEAASYVGEIVKPMGKNKVLVKINPEGKYVVDISHSVNIAQCTPNTRVALYNDSYKLHKILPSKVDPLVSLMKVEKVPDSTYEMVGGLDQQVKEVKEVIELPVKHPEIFESLGISQPKGVLLYGPPGTGKTLLARAVAHHTDCTFIRVSGSELVQKYIGEGSRMVRELFVMAREHAPSIIFMDEIDSIGSQRIEGEHGDSEVQRTMMELLNQLDGFESTQNIKVIMCTNRIDILDEALLRPGRIDRKIEFPNPNVEARMEILKIHSRKMNLMRGIDMMKIATDMNNCSGAEVKAVCTEAGMFALRERRVHVTQEDFEMAVAKVMKQDAEKNFTLRKLWK | soluble
MGGLFTGIALDSAGHDVTIAEQSAGDLRSRGGGIVAQQSIRQFLSRHDIVDPANITTRASERRFLTADGDVRTSTPDSMVFTSWDAVYRQLRAAFPDDRYHTGQTVTGVRATDGTVTFSDGDRTTADLVVAADGGQSTARAQLFPDADPEFADYVAWRGVVSEAELSDAVIDAFDGRFTFYQGEQMLILAYFIPGEDGNTAPGDRRLNWVWYDTLSGRERETIFTDTTGTSQQFSVSPGQLRDPVESHQRERAAETLPPVFTDLVATTAAPFVQAIYDLQSPQMTVDRVCLVGDAAFVARPHTAAGTSKAASDAVELKAALDRHSSLGGALASWDDARTDYGARLVAQGKRMGDERLSLGSLEHHHHHH | not soluble
MGSQAAHMMSMDFEDFPVESAHRILTPRPTVMVTTVDEEGNINAAPFSFTMPVSIDPPVVAFASAPDHHTARNIESTHEFVINITPADIIERMWVTARDIPAGENELEAAGLAWTSSRRVKPPRIVEAPGHLECELLRMFEVGDHNLITGSVVSASVRSGAVKEGLLDVESVKPVLHVGGNKFVVGDHVRHVE | soluble
MTATETVRVRFCPSPTGTPHVGLVRTALFNWAYARHTGGTFVFRIEDTDAQRDSEESYLALLDALRWLGLDWDEGPEVGGPYGPYRQSQRAEIYRDVLARLLAAGEAYHAFSTPEEVEARHVAAGRNPKLGYDNFDRHLTDAQRAAYLAEGRQPVVRLRMPDDDLAWNDLVRGPVTFAAGSVPDFALTRASGDPLYTLVNPCDDALMKITHVLRGEDLLPSTPRQLALHQALIRIGVAERIPKFAHLPTVLGEGTKKLSKRDPQSNLFAHRDRGFIPEGLLNYLALLGWSIADDHDLFGLDEMVAAFDVADVNSSPARFDQKKADALNAEHIRMLDVGDFTVRLRDHLDTHGHHIALDEAAFAAAAELVQTRIVVLGDAWELLKFFNDDQYVIDPKAAAKELGPDGAAVLDAALAALTSVTDWTAPLIEAALKDALIEGLALKPRKAFSPIRVAATGTTVSPPLFESLELLGRDRSMQRLRAARQLVGHALEHHHHHH | soluble
SDLPRHIAVLCDGNRRWARSAGYDDVSYGYRMGAAKIAEMLRWCHEAGIELATVYLLSTENLQRDPDELAALIEIITDVVEEICAPANHWSVRTVGDLGLIGEEPARRLRGAVESTPEVASFHVNVAVGYGGRREIVDAVRALLSKELANGATAEELVDAVTVEGISENLYTSGQPDPDLVIRTSGEQRLSGFLLWQSAYSEMWFTEAHWPAFRHVDFLRALRDYSAR | soluble
MKSASDPFDLKRFVYAQAPVYRSVVEELRAGRKRGHWMWFVFPQLRGLGSSPLAVRYGISSLEEAQAYLQHDLLGPRLHECTGLVNQVQGRSIEEIFGPPDDLKLCSSMTLFARATDANQDFVALLAKYYGGGEDRRTVALLAVT | soluble
MNLDYLKETYHLTKTESQILYYLDQQSTNAADLSIREVAKHCFSSPSSIIRLAKKLNLSGYNELIYKLKEAHFSQPIPFETAPSFETTNEFCRLLAKHKSHLFVILGHDFSRHLAAYISEVFNFHGIPSITTAYTHSINSQNNQNFLFIILSHSGEEKYLKETALLAKEKKHPIISFVGAKNSTLGRLADLVFSTDSYSPFSTSVAQPQMFFGQTLITFEALICAYLNHEDSIPISHKNK | not soluble
GMAYGSSNPEDLAKNFTKDLYSGDTKSVMSYIDLSEAKSDEEKTFVSDKITQVVAENAAKAKRMGGVKDIQIEEKTINKDSAKIRVLVLFNNDNNQSSNVFLAKKDRKWLVLLK | soluble
MIKFNIRGENVEVTDAIRAYVEDKIGKLDKYFNDGHEVTAYVNLKVYSEKRAKVEVTLPAKNVTLRAEDTSQDMYSSIDFVEEKLERQIRKYKTRMNRKPRNAVPTGQAFGDEFAPLEKADEVAEDHVDIVRTKHVALKPMDAEEAVLQMDMLGHDFYVFTDADSNGTHVVYRRTDGRYGLIETELEHHHHHH | soluble
